Test results from patent US20230250176A1 (DRAGONFLY THERAPEUTICS, published 2023).
Substitutions are numbered along the chain they refer to.

Columns and labels:
[1] = target: T1, human EGFR T790M, L858R on NCI-H1975 cells (human, UniProt P00533 25-1210); test: cell-based or functional assay
[2] = target: T2, human EGFR (wild type) on cells (human, UniProt P00533 25-1210); test: cell-based or functional assay
[3] = target: T2, human EGFR (wild type) on cells; test: flow cytometry, KYSE-30 cells
[4] = target: T2, human EGFR (wild type) on cells; test: flow cytometry, NCI-H292 cells
[5] = target: T2, human EGFR (wild type) on cells; test: flow cytometry, Detroit 562 cells
[6] = target: T3, purified recombinant human EGFR (human, UniProt P00533 25-645); test: SPR (Biacore 8K), 37 C
T3 construct: the whole entry is named; also called recombinant human epidermal growth factor receptor

[7] = target: T1, human EGFR T790M, L858R on NCI-H1975 …; test: flow cytometry, NCI-H1975 cells
[8] = target: T4, recombinant cynomolgus monkey NKG2D (cynomolgus monkey, UniProt P61252 78-216, limits assumed); test: SPR
T4 sequence (looked up): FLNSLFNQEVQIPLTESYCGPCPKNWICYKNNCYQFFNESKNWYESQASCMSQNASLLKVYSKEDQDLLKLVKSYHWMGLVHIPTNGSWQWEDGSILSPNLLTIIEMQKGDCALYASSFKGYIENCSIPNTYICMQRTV

[9] = target: T5, purified recombinant human NKG2D (human, UniProt P26718 78-216, limits assumed); test: SPR
T5 sequence (looked up): T4 sequence (looked up) with N38D, I128T

recombinant rat NKG2D = target: T6, recombinant rat NKG2D (rat, UniProt O70215 75-215, limits assumed); test: SPR
T6 sequence (looked up): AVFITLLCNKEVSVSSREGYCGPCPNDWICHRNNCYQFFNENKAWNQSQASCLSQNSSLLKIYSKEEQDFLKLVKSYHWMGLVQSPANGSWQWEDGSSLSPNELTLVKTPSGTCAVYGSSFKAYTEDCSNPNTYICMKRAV

recombinant mouse NKG2D = target: T7, recombinant mouse NKG2D (mouse, UniProt O54709 94-232, limits assumed); test: SPR
T7 sequence (looked up): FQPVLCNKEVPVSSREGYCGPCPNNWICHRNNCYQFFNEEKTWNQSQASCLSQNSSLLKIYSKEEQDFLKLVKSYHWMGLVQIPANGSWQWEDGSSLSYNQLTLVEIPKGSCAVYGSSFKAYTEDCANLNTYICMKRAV

[10] = target: T2, human EGFR (wild type) on cells; test: cell-based or functional assay; remark: listed apart in the source
[11] = target: T2, human EGFR (wild type) on cells; test: flow cytometry, BT474 cells
[12] = target: purified recombinant human FcγRI (human, UniProt P12314 16-288, limits assumed); test: SPR (Biacore 8K), 25 C
[13] = target: T8, purified recombinant human FcγRIIIa V158 (human, UniProt P08637 17-208); test: SPR (Biacore 8K), 25 C
T8 construct: also called human CD16 V158; CD16a

[14] = target: T9, purified recombinant human FcγRIIa H131 (human, UniProt P12318 36-218, limits assumed); test: SPR (Biacore 8K), 25 C
T9 sequence (looked up): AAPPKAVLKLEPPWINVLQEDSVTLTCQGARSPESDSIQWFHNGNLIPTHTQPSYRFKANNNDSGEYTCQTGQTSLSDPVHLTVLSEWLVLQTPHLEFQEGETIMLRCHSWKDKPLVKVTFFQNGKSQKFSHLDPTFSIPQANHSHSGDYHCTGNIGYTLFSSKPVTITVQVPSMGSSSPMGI

[15] = target: T2, human EGFR (wild type) on cells; test: cell-based or functional assay; remark: listed apart in the source
[16] = target: T3, purified recombinant human EGFR; test: SPR (Biacore 8K), 37 C; remark: listed apart in the source
[17] = target: T2, human EGFR (wild type) on cells; test: flow cytometry, NCI-H1703 cells
[18] = target: T1, human EGFR T790M, L858R on NCI-H1975 …; test: cell-based or functional assay; remark: listed apart in the source
[19] = target: T2, human EGFR (wild type) on cells; test: cell-based or functional assay; remark: listed apart in the source

EC50, NK cell degranulation and cytokine production, human PBMCs with NCI-H1975 [1]: 0.067 nM | EC50, NK cell degranulation and cytokine production, human PBMCs with 786-O [2]: 0.089 nM | EC50 [3]: 11 nM | Max FOB [3]: 1800 fold over background | EC50 [4]: 5.3 nM | Max FOB [4]: 800 fold over background | EC50 [5]: 1.6 nM | Max FOB [5]: 490 fold over background | Kd [6]: 4.7 nM | koff [6]: 0.00095 s⁻¹ | kon [6]: 200000 M⁻¹ s⁻¹ | EC50 [7]: 2.3 nM | Max FOB [7]: 170 fold over background | Kd [8]: 562 nM | Kd [9]: 482 nM | binding result (recombinant rat NKG2D): no binding | binding result (recombinant mouse NKG2D): no binding | EC50 of growth inhibition at 72 hours (IncuCyte), human primary keratinocytes, against cetuximab [10]: 60 fold | EC50 of inhibition of EGF-induced EGFR phosphorylation (AlphaLISA), human primary keratinocytes [10]: 5.3 nM | EC50 of tumor cell growth inhibition over 72 hours (IncuCyte), NCI-H292-NucLight Green or FaDu cells [10]: 1.7 to 3.9 nM | EC50 [11]: 0.77 nM | Max FOB [11]: 41 fold over background | Kd [12]: 5.6 nM | koff [12]: 0.00024 s⁻¹ | kon [12]: 42000 M⁻¹ s⁻¹ | Kd [13]: 53.8 nM | koff [13]: 0.011 s⁻¹ | kon [13]: 200000 M⁻¹ s⁻¹ | Kd [14]: 1000 nM | EC50, NK-dependent inhibition at 72 hours, HT29 tumor cells [15]: 0.063 nM | fold weaker affinity than panitumumab [16]: 4.7 fold | EC50 [17]: 4.6 nM | Max FOB [17]: 730 fold over background | EC50, ADCP by M0 macrophages, NCI-H1975 [18]: 2.3 nM | EC50, ADCP by M0 macrophages, 786-O [19]: 2.2 nM
B1: EGFR-TriNKET (bispecific antibody, human IgG1, kappa)
chain: DIQMTQSPSSLSASVGDRVTITCQASQDISNYLNWYQQKPGKAPKLLIYDASNLETGVPSRFSGSGSGTDFTFTISSLQPEDIATYYCQHFRHLPLAFGCGTKVEIKGGGGSGGGGSGGGGSGGGGSQVQLQESGPGLVKPSETLSLTCTVSGGSVSSGDYYWTWIRQSPGKCLEWIGHIYYSGNTNYNPRLKSRLTISIDTSKTQFSLKLSSVTAADTAIYYCVRDRVTGAFDIWGQGTMVTVSSGSDKTHTCPPCPAPELLGGPSVFLFPPKPKDTLMISRTPEVTCVVVDVSHEDPEVKFNWYVDGVEVHNAKTKPREEQYNSTYRVVSVLTVLHQDWLNGKEYKCKVSNKALPAPIEKTISKAKGQPREPRVYTLPPCRDELTKNQVSLTCLVKGFYPSDIAVEWESNGQPENNYKTTPPVLVSDGSFTLYSKLTVDKSRWQQGNVFSCSVMHEALHNHYTQKSLSLSPG
heavy: EVQLVESGGGLVKPGGSLRLSCAASGFTFSSYSMNWVRQAPGKGLEWVSSISSSSSYIYYADSVKGRFTISRDNAKNSLYLQMNSLRAEDTAVYYCARGAPIGAAAGWFDPWGQGTLVTVSSASTKGPSVFPLAPSSKSTSGGTAALGCLVKDYFPEPVTVSWNSGALTSGVHTFPAVLQSSGLYSLSSVVTVPSSSLGTQTYICNVNHKPSNTKVDKKVEPKSCDKTHTCPPCPAPELLGGPSVFLFPPKPKDTLMISRTPEVTCVVVDVSHEDPEVKFNWYVDGVEVHNAKTKPREEQYNSTYRVVSVLTVLHQDWLNGKEYKCKVSNKALPAPIEKTISKAKGQPREPQVCTLPPSRDELTENQVSLTCLVKGFYPSDIAVEWESNGQPENNYKTTPPVLDSDGSFFLYSWLTVDKSRWQQGNVFSCSVMHEALHNHYTQKSLSLSPG
light: DIQMTQSPSSVSASVGDRVTITCRASQGISSWLAWYQQKPGKAPKLLIYAASSLQSGVPSRFSGSGSGTDFTLTISSLQPEDFATYYCQQGVSFPRTFGGGTKVEIKRTVAAPSVFIFPPSDEQLKSGTASVVCLLNNFYPREAKVQWKVDNALQSGNSQESVTEQDSKDSTYSLSSTLTLSKADYEKHKVYACEVTHQGLSSPVTKSFNRGEC
notes: also called EGFR-TriNKET-3
